Experimental findings from PMC8419096 are described below.

The target of the experiment is HIV-1 precursor Gag (PrGag) protein (HIV-1) (UniProt P04591). In words: dual fluorescence microscopy of virus-like particles.

As to “EGFP-Vpr (from UniProt P12520 1-96) (natural protein)”, the percent of CA positive particles that were also GFP positive stood at 39.1%.

B1: VHH52-GFP (control nanobody elicited against the influenza nucleoprotein, fused to GFP) (VHH)
VHH: QVQLQESGGGLVQAGGSLRLTCALSERTSTSYAQGWFRQPPGKEREFVASLRTHDGNTHYTDSVKGRFTISRDNAENTLYLQMNSLKTEDTAVYYCAASLGYSGAYASGYDYWGQGTQVTVSS
Molecule B1 had a percent of CA positive particles that were also GFP positive of 0.1%.
